± gives the uncertainty stated by the source.
assay: amyloid nucleation score (Sup35N fusion, yeast selection) (log enrichment); library NNK3; higher = more nucleation; inactive = no reads after selection
How it was run: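 The nucleation score equals the log enrichment of output over input reads from DiMSum, centred on the mode score of non-aggregating sequences. It was computed only for sequences with 100 or more input reads. The reads came from Illumina sequencing of plasmid inserts from psi-negative yeast expressing Sup35N fused to peptides of 20 random codons, induced with 100 μM copper sulfate for 24 hours and grown 7 days at 30°C without adenine and uracil.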

Substance	amyloid nucleation score
KSGICGCVGHLVHKPMQLRV	inactive
SALEKVDGATSIEVLPTNRR	inactive
RMFMWENEMDLSTSRVKGYG	inactive
QMYSLWCKKCMFYDGCEGVS	inactive
NTVNWSFFVMVLSFSSRETV	inactive
STICDFNLICSAFANSVRLR	inactive
EMFYSVCFIYRIMFT	1.25 ± 0.089
SFLVSSINNVQGFFSVNGYV	0.085 ± 0.26
PIVRWVSSLLYVVRWLPRLA	inactive
PWPNVLLCDNDRLSFRYRSF	0.972 ± 0.1
CCGMYYNSMASNVWSER	2.17 ± 0.084
VNEPDSVFMT	inactive
SLWMQGWYSSGLLPFGSIAE	inactive
VSGRWFTMWSGFSLCFALSG	0.062 ± 0.46
FRIFVRRVI	2.33 ± 0.084
DDFVG	inactive
LFRVDRPTNCGPYFAYHEYT	inactive
QSFIRSFIVYVKDALGAHHG	inactive
PQHLFST	inactive
KFMIVVKCSM	0.745 ± 0.2
SFCWASKSVHRSRG	inactive
TIPYFQYDVFHKEDNWTGML	inactive
LDRCNFISTILPQIRFSV	inactive

Substance	amyloid nucleation score
ICPSNFWMFCSCYWSMLRNF	inactive
IGLSSHISWYE	inactive
HWLTSSVKSLTPRSGQKGLD	inactive
YVQIGFILIFISNYLSCESA	1.8 ± 0.071
ENYLKVCVASVCPWLLHVRS	-0.079 ± 0.48
GLMLDFILYQWTWYKLSMDT	inactive
HVVVKK	inactive
EVGYKTVFPVGIMNDIVMWM	inactive
ASDRMKGVLNLLQYVGYSSM	inactive
ITCGIKIFF	2.76 ± 0.068
VIKTLTHSFHLTNGFGTSYI	inactive
MSPWSRMF	inactive
ISFSLH	inactive
YYMLWSKCCEYSAHRN	inactive
TNYWNHVVYVTGNVCDP	inactive
CMLSDVIFYIVDDIRMFVGV	inactive
AACYINMCIGIVYGYSFLSF	1.13 ± 0.087
HGKKRNGRSPYINGFYLCYW	inactive
YRPSIRLTGCLSSLYTLFYG	1.92 ± 0.062
CSTIVWWEIAYKL	inactive
KLPVKGRMPVVF	inactive
AMIINLRMWYNLRIIIMGTR	inactive
LNCIFLVKVIYWTRFTWSTY	inactive

Substance	amyloid nucleation score
TVNPMIVDPCNW	inactive
DLLTFYFEPSASHSLLRPSG	inactive
RVPGVCVYLCNEVACSTLCI	2.03 ± 0.079
LLPLDSHYISSPFY	inactive
SFLWKIMISCYMMIVFCCVS	inactive
FLFWILDALLLQVFQLSPHK	inactive
PFHLRVMKIRLRLPVVHLKG	inactive
RGAIIFGKTMIYDSC	inactive
EWISLQVKNLTVSTVMLCLE	inactive
SNSFTAFVYTYPWDHLVGVL	-0.195 ± 0.47
PFSWCFICKSL	inactive
LFSTCSSWTQFLLRPAVSAV	inactive
GRDMMWAVCDFEAKLELETG	inactive
MKGVLAKNGYIDGVLGNTAM	inactive
RCDCLRRNGSLHSQFNVSGG	1.02 ± 0.2
NYRAPMCCELFNKWVF	inactive
LSKQIVIRINSNNCNGSVFF	2.7 ± 0.049
CSFRIMGDQMIGKTCCRFGH	inactive
RMDETWNITRKNWQDSY	inactive
SITSAPSLYMSGFTKVCSGE	inactive
VVLSWT	-0.477 ± 1.1
YCNMVWT	inactive
MPFIPHLDGS	inactive

Substance	amyloid nucleation score
NASMNKYYVRFTFGNPHVLL	2.52 ± 0.061
IVVLNVNTPWSMFQGVGSIQ	2.58 ± 0.085
TKADEHYESIYTLCCHFVSP	inactive
RKSGYFP	inactive
ICGMLR	inactive
GSFGYNCVKFHSDGFQAGRG	inactive
TEMMTFGFSGVMFVRVMFWL	inactive
RSIYCLRVNTGYMNKFVVLR	inactive
MPRESLDLSTWVLVEEFIYI	inactive
DNKVFTLSNQA	inactive
GFSYMLVFSNGVYMLIRIRW	inactive
RREGGTPIAHPLLGPGP	-0.076 ± 0.73
DVPGIGCEGKALRRLGFLLR	inactive
IFVSCCLLRLSAGWVVKLIR	inactive
DPGHRGLTDFYSMFRL	inactive
FYVASFWYYPKSEHNGA	inactive
RTSMPTTHGGLVLQSWDYRP	inactive
YVCGQSG	inactive
MSMDHLMTYLRLATQVALRS	inactive
IGWYYSYITRKSENWVLVAL	inactive
NSMYYPYQVVRWLVDWHVIR	inactive
GILLRFNKGA	inactive
RNTDLL	inactive

Substance	amyloid nucleation score
SNARKGLMNVLRRYWLCDWT	-0.412 ± 0.88
TPLADN	-0.224 ± 0.73
KGLCL	inactive
VTLTN	inactive
AFFSFNAD	inactive
LCWKFAPRMLVYMMGY	inactive
FTRNCSKWIVG	inactive
RNGDCLWIFR	0.732 ± 0.28
IMSPTFGFQMLWPGPRHRLL	inactive
SARGCTNSSSNGLGRGHQTG	inactive
SGSKR	inactive
TIFGDCAEYSYVVLFINLFI	2.1 ± 0.098
PVQPTEARNR	inactive
YSWDILSLLRGKETQACICY	inactive
IIPTD	inactive
YCWYRQMDNSRGGYYMWVS	inactive
PVDIDPLGSFVD	inactive
RYSGANVDNYVN	inactive
LFSELKISSVWCDL	inactive
NGYPHLIQHYLVNAG	inactive
TTGPYLSATEHTVGHLR	inactive
IRGDGCTGARSPTTSRAAGN	inactive
CSGYVNGLVIQGKCAKDVVW	inactive

Substance	amyloid nucleation score
CYRWL	inactive
ITMTCFCIMGAESISNLPMW	1.33 ± 0.11
TVTGFTCNGCFHAVNSVVLT	0.002 ± 0.8
LIGLRCMPLRV	inactive
VSHTIKAILFGFRRQDHLYF	inactive
YIFGNFRHTSGGYCVLSVLK	inactive
VFFIAAFLSTCMR	inactive
VCLLIRPID	inactive
RGAVLLKNWL	inactive
SRNSSIMCFL	inactive
HKDMVNASLPGITSARWLGR	inactive
AWLSLVCVDVGTTPFSHNDR	inactive
GGSLYACRGTLRLSNTNVKA	inactive
LVKLCIFGLRDGYTVFEYMG	inactive
SILLDMSDQFPALGFSLFII	inactive
RLYQFCFDENSIQLFIYP	2.35 ± 0.069
NLRHCGCSALGTMTDVNVRG	0.692 ± 0.2
CQPSF	inactive
RLSMNLNTVHVKHKECVPYR	inactive
MDLCMETGQYSLRNTVCAFL	inactive
LALAVGQRDRVLFVKVPVLR	inactive
IYGLPRYFVGYGFFKSYVRL	inactive
NAAGCSVSGCIG	inactive

Substance	amyloid nucleation score
DVLRVFLFSSFIILCVGCTY	inactive
CRLYEDIGISYMVATNQLEY	inactive
GLGMGAPQSILWVGDLLMTN	inactive
RKKLEGVFVRLFQFANPIVG	inactive
SLLVLETDGCFPVAPLAGDS	-0.926 ± 1.1
LNWSKEAWCSYNILLNYGGW	inactive
DCCGLVAYNLVFRICGACLG	inactive
ALQLHWYYRDTRRRCFTVCV	inactive
KPNLRFLS	inactive
CFYIKKSKVGLGHWINHV	inactive
YHGVLRWSKSTFAAHYPVTA	inactive
MSVDGLHCRWPSWHVKILLD	inactive
RLPLLTTKSGMSDTYSAP	inactive
ASGLDIISSSNKLH	inactive
CYLVLFGAM	inactive
WVLEE	inactive
LVILMSSHIEFLGTYFNEKL	inactive
GTNFALRHGMIILSRLWAYW	inactive
WYGITEIP	inactive
RYDMRVNVVFTCPWRDSNND	0.894 ± 0.28
FYLTR	inactive
FCGAYLVVIAEFL	inactive
